This experiment addresses human activated blood coagulation factor X (FXa) (human). Put plainly: SPR; […]; 37°C; HBS (10 mM Hepes, 150 mM NaCl, 5 mM CaCl2, 0.005% P20, pH 7.4); Langmuir fit; […].

Consider “CbII, the basic subunit of the CbI-CbII complex (β-neurotoxin) from Pseudocerastes fieldi venom (enzyme)”, for which the Kd (commonly the free concentration of one partner at which half of the binding sites on the other are occupied at equilibrium, for simple one-to-one binding) is 20 nM; the koff – broadly, a measure of how fast the partners let go of each other – is 0.0085 s⁻¹; the kon – broadly, a measure of how fast the partners come together – is 420000 M⁻¹ s⁻¹.
The matching figures for “bAhp, the basic PLA2 from Gloydious (Agkistrodon) halys pallas venom (from UniProt O42187 17-138) (enzyme)”: 400 nM, 0.016 s⁻¹ and 40000 M⁻¹ s⁻¹.

Source of the values: article PMC2248580.
